We go through four molecules from patent publication US20230242665A1 (SYSTIMMUNE, published 2023).

Assay [1] deals with T1, TROP2 on BXPC-3 and MCF-7 cells (human, UniProt P09758 27-323).
T1 construct: whole, on cells; also called BxPC-3 cells; MCF-7 cells (positive cells)
T1 sequence (looked up): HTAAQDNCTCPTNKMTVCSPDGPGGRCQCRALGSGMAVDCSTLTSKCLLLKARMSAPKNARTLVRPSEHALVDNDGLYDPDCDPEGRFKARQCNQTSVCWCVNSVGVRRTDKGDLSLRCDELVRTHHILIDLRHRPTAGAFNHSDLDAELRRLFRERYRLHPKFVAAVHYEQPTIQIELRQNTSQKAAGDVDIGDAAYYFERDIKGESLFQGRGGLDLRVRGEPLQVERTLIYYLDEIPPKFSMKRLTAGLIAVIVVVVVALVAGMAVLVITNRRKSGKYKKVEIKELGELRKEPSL
In words: flow cytometry on BXPC-3 cells, 1 hr at 4 C, FITC-labelled secondary antibody. (In flow cytometry, cells or beads pass a laser one at a time.)

Assay [2] has as its target T2, TROP2 antigen (extracellular region of TROP2, expressed in 293F cells) (human, UniProt P09758 27-274).
T2 construct: extracellular domain; The antigen was coated on ELISA plates; For the Octet assay it was biotin-labelled and immobilized on streptavidin sensors; also called TROP2 protein
T2 sequence (looked up): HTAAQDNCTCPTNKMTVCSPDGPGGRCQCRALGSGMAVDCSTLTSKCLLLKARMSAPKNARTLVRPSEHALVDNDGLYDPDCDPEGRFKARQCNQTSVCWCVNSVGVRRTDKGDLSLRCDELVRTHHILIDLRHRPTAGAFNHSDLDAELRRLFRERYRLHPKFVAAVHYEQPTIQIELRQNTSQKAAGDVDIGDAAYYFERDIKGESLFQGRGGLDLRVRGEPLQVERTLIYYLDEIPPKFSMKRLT
The experiment in a line: ELISA, TROP2-coated plate, anti-human Fc HRP. On the technique in general: ELISA stands for enzyme-linked immunosorbent assay.

Assay [3] has as its target T1, TROP2 on BXPC-3 and MCF-7 cells. The experiment in a line: flow cytometry on MCF-7 cells, 1 hr at 4 C, FITC-labelled secondary antibody.
The target of assay [4] is T2, TROP2 antigen (extracellular region of …). In words: BLI (ForteBio Octet), biotin-labelled antigen on streptavidin sensor, antibody in solution. The source says:
Pall ForteBio Octet optical analysis technology platform is used to evaluate the absolute affinity of antibody-antigen binding. In this method, the biotin-labeled antigen is immobilized on the surface of the streptavidin biosensor chip, the baseline is balanced for 180 seconds, and then it binds with the antibody diluted in the solution concentration gradient for 30 seconds, which increases the optical thickness of the chip, resulting in The wavelength shifts (Δλ), and then enters the dissociation phase of 30 sec. The interaction between the Trop2 antigen and the corresponding antibody is measured in real time, and the specificity of binding, binding rate, dissociation rate or sample concentration are precisely and accurately measured at each concentration. After summarizing the k-on and k-off values under at least 5 concentration gradients, the KD binding constant is obtained.
For orientation: In BLI a coated tip is dipped into the sample, and binding shifts an interference pattern.

Assay [5] has the same target. In words: competition ELISA on TROP2-coated plate; competitor: 7F11-humanized-biotin.
The target is the same in assay [6]. In words: competition ELISA on TROP2-coated plate; competitor: 0.5 ng/ml 4D3-humanized-biotin. How it is done:
The 4D3-humanized antibody was labeled with biotin, and the inflection point value of the binding curve was determined by ELISA to be 0.5 ng/ml. Prepare an ELISA blocking solution containing 0.5 ng/ml 4D3 biotin-labeled antibody, and configure 50 ug/ml of competing antibodies 4D3-chimeric and 4D3-humanized on the basis of this solution. Add the solution containing biotin-labeled antibody and competing antibody to A1˜A12, 150 ul per well, then aspirate 50 ul and add to B2˜B12, mix well with the pre-added biotin antibody solution with a volume of 100 ul, and then dilute 3 times in sequence To H1˜H12, incubate at 37° C. for 1 hr, then wash and incubate the […], incubate at 37° C. for 1 hr, then wash 3 times, perform color development for 25 min and read the value.
FIG. 12: 4D3-humanized-biotin antibodies compete with ch4D3 and hum4D3 antibodies at 0.02-50 ug/ml, respectively. The two competing antibodies show the same degree of competitive activity and bind to the same epitope.

Assay [7] has as its target T1, TROP2 on BXPC-3 and MCF-7 cells. The experiment in a line: flow cytometry on BXPC-3 cells, 1 hr at 4 C, FITC-labelled secondary antibody. This is another data set of the same source.
The target in assay [8] is T2, TROP2 antigen (extracellular region of …). In words: ELISA on a TROP2-coated plate, anti-human Fc HRP detection. Here is the method: (§1) Dilute the chimeric antibody to a concentration of 50 ug/ml, add it to wells A1˜H1 on the TROP2-coated ELISA plate, and then perform a 3-fold horizontal dilution from A1 to A12; incubate at 37° C. for 1 hr, then rinse and add Mouse anti-human Fc HRP-labeled antibody was incubated at 37° C. for color development.

For assay [9] the target is unchanged. In words: ELISA, TROP2-coated plate, chimeric antibody, anti-human Fc HRP. How it is done: as §1

B1: 7F11 humanized antibody (antibody, V domains shown)
VH: QVQLVQSGAEVKKPGASVKVSCKASGYTFTDHVISWVRQATGQGLEWMGQIYPGSDNSYYAQKFQGRVTLTADKSINTAYMELSSLRSEDTAVYYCAREGYGYGKNGVGYAMDYWGQGTLVTVSS
VL: DIVMTQSPDSLAVSLGERATINCKASQSVSNDVVWYQQKPGQPPKLLIYYASNRYTGVPDRFSGSGYGTDFTLTISSLQAEDVAVYYCQQDYSSPWTFGGGTKVEIKR
notes: also called Hu7F11; hu7F11
As for B1, the “EC50 (read off the curve)” value in assay [1] was about 0.05 µg/mL. This molecule also displayed an EC50 in assay [2] of 0.0601 µg/mL. The “EC50 (read off the curve)” value in [3] is about 0.04 µg/mL. In assay [4], the Kd worked out at 0.0994 nM, the koff was 1.85e-05 s⁻¹ and the kon came to 186000 M⁻¹ s⁻¹. Also, the EC50 in [5] turned out to be 0.856 µg/mL.

B2: 4D3 humanized antibody (antibody, V domains shown)
VH: QVQLVQSGAEVKKPGASVKLSCKASGYTFTSFDINWVRQAPEQRLEWMGWIFPGDGNTKYSQKFQGRATITRDTSASTAYMELSSLRSEDTAVYYCVRGEALYYFDYWGQGTLVTVSS
VL: DIQMTQSPSSLSASVGDRVTITCRASQDINKYLAWYQQKPGKVPKLLIYSTSTLQSGVPSRFSGSGSGTDFTLTISSLQPEDVATYYCLQYDDLFTFGQGTKLEIKR
notes: also called Hu4D3; hu4D3
The molecule B2 showed an EC50 in assay [2] of 0.0502 µg/mL. In assay [6], it took 0.326 µg/mL to reach a half-maximal effect (EC50). For the same molecule, in assay [4], the Kd was determined as 30.7 nM, the koff was found to be 0.00428 s⁻¹ and the kon is 139000 M⁻¹ s⁻¹. For the same molecule, the concentration for a half-maximal effect (EC50 (read off the curve)) in assay [7] is about 0.04 µg/mL.

B3: 4D3 chimeric antibody (antibody, human IgG1, kappa, V domains shown)
VH: QVQLQQSGAELVKPGASVKLSCKASGYTFTSFDINWVRQRPEQGLEWIGWIFPGDGNTKSNEKFKGKATLTTDKSSSTAYMQLSRLTSEDSAVYFCVRGEALYYFDYWGPGTTLTVSS
VL: DIQMTQSPSSLSASLGGKVTITCKPSQDINKYIAWYQHKPGKGPRLLIHSTSTLQPGIPSRFSGSGSGRDYSFTISNLEPEDIATYYCLQYDDLFTFGSGTKLEIKR
notes: The entries begin with a leader (signal) peptide; also called ch4D3
Consider B3, for which, in assay [8], the “EC50 (read off the curve)” value is about 0.05 µg/mL. Moreover, the figures for the EC50 in assay [9], in assay [2] and in assay [6] were 0.047 µg/mL, 0.056 µg/mL and 0.336 µg/mL, respectively. In [4], this molecule yielded a Kd of 6.89 nM. Also, the koff in assay [4] is 0.00162 s⁻¹. Also, the kon in [4] was 235000 M⁻¹ s⁻¹.

B4: 7F11 chimeric antibody (antibody, human IgG1, kappa, V domains shown)
VH: QVQLQQSGPEVVKPGASVKMSCKASGYTFTDHVISWVKQRTGQGLEWIGQIYPGSDNSYYSEKLKDKATLTADKSSNTAYMQLVSLTSEDSAVYFCAREGYGYGKNGVGYAMDYWGQGTSVTVSS
VL: SIVMTQTPKFLLVSAGDRVTITCKASQSVSNDVVWYQQKPGQSPKLLIYYASNRYTGVPDRFTGSGYGTDFTFTISTAQAEDLAVYFCQQDYSSPWTFGGGTKLEIKR
notes: The entries begin with a leader (signal) peptide; also called ch7F11
Regarding B4, the “EC50 (read off the curve)” value in assay [8] was about 0.07 µg/mL. For the same molecule, in assay [9], it took 0.071 µg/mL to reach a half-maximal effect (EC50). The same molecule showed an EC50 in assay [2] of 0.061 µg/mL. Further, in assay [4], the Kd is 0.0611 nM, the koff was determined as 1.45e-05 s⁻¹ and the kon was 243000 M⁻¹ s⁻¹. Also, it took 0.732 µg/mL to reach a half-maximal effect in [5] (EC50).

One may read the EC50 (read off the curve) as the concentration needed to bring the measured effect to its halfway point. Read a high EC50 (read off the curve) as a need for much substance. A word on the EC50: it is the midpoint of the concentration-response curve. As a reminder, the Kd is the constant that tells how readily two partners part at equilibrium. The low end stands for higher affinity, the high end for lower affinity. As a reminder, the koff is a measure of how fast the partners let go of each other. A word on the kon: it is the rate constant with which the complex forms.
